Among the data in paper PMC3506182 (Cancer research, 2012) are Kd values, retold here.

For the experiment, the target named is T1, recombinant human CCN6 (rhCCN6) protein, full length (human, UniProt O95389 24-354).
T1 sequence (looked up): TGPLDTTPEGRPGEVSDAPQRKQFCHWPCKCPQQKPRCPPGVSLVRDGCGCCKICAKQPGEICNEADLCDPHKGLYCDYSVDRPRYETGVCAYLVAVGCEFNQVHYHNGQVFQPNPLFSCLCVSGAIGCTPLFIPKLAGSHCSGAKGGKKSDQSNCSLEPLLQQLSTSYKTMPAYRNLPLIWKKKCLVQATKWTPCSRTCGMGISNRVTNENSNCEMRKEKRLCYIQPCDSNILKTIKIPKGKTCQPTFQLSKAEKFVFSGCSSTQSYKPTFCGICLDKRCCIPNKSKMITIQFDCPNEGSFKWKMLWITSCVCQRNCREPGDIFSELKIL
Put plainly: SPR. For orientation: Surface plasmon resonance follows binding to a sensor surface in real time, without labels.

B1: disulfide linked homodimer of biotin labeled rhBMP4 (Bio-BMP4) (ligand, human, UniProt P12644 293-408, looked up)
chain: SPKHHSQRARKKNKNCRRHSLYVDFSDVGWNDWIVAPPGYQAFYCHGDCPFPLADHLNSTNHAIVQTLVNSVNSSIPKACCVPTELSAISMLYLDEYDKVVLKNYQEMVVEGCGCR
modifications: biotin label (site not stated)
As a reminder, the Kd is the equilibrium constant for the complex coming apart. With B1, the Kd turned out to be 200 nM.
